The DeepSol protein solubility set

Assay: soluble on expression in E. coli; label from the status in PepcDB or PDB records

Sequence | soluble on expression in E. coli
MSVKEPEKFLASHIYNIDYQEDLNKCFANLCTNKKNTILLESAEIDTKDKLKSILVLNSALRIACIENKVFIKPLSENGKYALKAIQENIKKDVDYKYDNNQLVLTFEFIKDYQLSESQKLKKPSVFDALRIIKDSFEIYNEFSIFLAGLFAYDVVASFENIGKIKRKNKCPDYVFYLADTILVSDHQEQKTFIQVNSFGHQTITDLEDSVAAIKQNINNDIELKVEKFKNIEPKESINDRDFCIVVDKLKSHIIDGDIFQVVPSRSFFLPCQNSLEVYKELKRTNPSPYMFYMQDEDFILFGASPESALKYQKSTNQVEIYPIAGTRRRAKNSDGSINADLDSRIELELRLDAKENAEHMMLVDLARNDVARISKTGTRYVADLLKVDRYSHVMHLVSRVVGQLADDLDALHAYQASMNMGTLTGAPKIKAMQLISEVEKQTRGVYGGAIGYFNGYGDLDSCIVIRSAYVENGVAEIQAGAGVVLDSIPIAEADETRTKAQAVISAIKNVHGV | not soluble
IGKLKLSARGTFTFTRNKILEYDELPQKYGYQAVTGTRVSENTLYIADRLYTEDDFIVSTNANGLKTYKLRSELPRPTLGGLIGPGDIKYVDVNGDGVIDSYDQVRGVGNPSTPEIIYGFGLNAEYKGFYASIFFQGAGNTSVLLGGATSEGWYPFSWGVDQSNYRTFALDRWTENNPSQDVIIPRLHKNNANNANNRVASTWWLRNGSFLRLKNIEFGYQLPKKFMDKIGFEAARIYIMGYNLAVWDDIKYFDPEAGNANAGLNYPLPRTFTLGLDFTF | not soluble
MGSDKIHHHHHHMAVLITRPGERGERLVEMLNKAGIMALHLPLISIIAGQELNRLPNKLQQLNCGDYVVAVSKNAVEYAQKTLSAVGFCWRSDLYYFTVGQRTAEYFASQIENSVYYPVEQESSEGLLNLPQMQDLQARNILILRANGGREFFTEQAILRGAKVETLECYQRMPIEYNKLEKISLCQRIGVDTIVVTSQEMLNYLVKLVPTNETGWLFSCRLVTVSQRIAALAKSVGWTNIVVADKADNLSLFLALQQ | not soluble
MNNNHYTYRVLWSQEDEEYVGLCAEFPSLSWLDAQAEKALKGIMDLVSEVVEDMQHNGEEVPVPLSHGKYSGKFQLRIPPELHRKLAIQAAENGVSLNRYISSKL | not soluble
CNFDCLYCELEGKKATDSMGEVAKVEEILEELREALPRYKPDVITVTANGEPTLYPALLPLIRGINALPHSAKTLILSNGSRFGEPEVQEALLEFDMVKFSLDAVSARAFKRVDRAHDSLSISQIIQGIKGFRSRYRGDLIAEVLFVKGVNDSPEEARAIARVLKEIAPSRVDLSTIDRPPAYKVEGVSPQKLEE | not soluble
SSTHGSRFPLCGGRRDHKGLTHIFNPPPKRFESILEGLFGPALLKDLSLFKDCEPESISDWTFDENCLFCCLRRDKVKGHLVGLDEPASGAGQEALLKQEQAKIIRFERQAEEFLNAVFYRKDSPWVSDPNIPLVAREIMQRMIQQFAAEYTSKNSSTQDPSQPNSTKNQSLPKASPVTTSPTAATTQNPVLSKLLMADQDSPLDLTVRKSQSEPSEQDGVLDLSTKKSPCAGSTSLSHSPGCSSTQGNGRPGRPSQYRPDGLRSGDGVPPRSLQDGTREGFGHSTSLKVPLARSLQISEELLSRNQLSTAASLGPSGLQNHGQHLILSREASWAKPHYEFNLSRMKFRGNGALSNISDLPFLAENSAFPKMALQAKQDGKKDVSHSSPVDLKIPQVRGMDLSWESRTGDQYSYSSLVMGSQTESALSKKLRAILPKQSRKSMLDAGPDSWGSDAEQSTSGQPYPTSDQEGDPGSKQPRKKRGRYRQYNSEILEEAISVVMSGKMSVSKAQSIYGIPHSTLEYKVKERLGTLKNPPKKKMKLMRSEGPDVSVKIELDPQGEAAQSANESKNE | soluble
SLKINQEEDTVSSEKNKLCDNNNNNNMVHTRHIYNVCELNKCLRENKLIPYNNIYKMKHLYLNILDTFDENILKHVNKAHLFIDSVIQKKKNILIHSMAGISRCSSIILSYVSKKNKKGIEYNFNLLKSKYPFAHPNENFYRQLLLYEKMNYTLDGCTDYHNIYK | not soluble
MGSDKIHHHHHHMDIKQLKYFVEIVKSGFNLSIASKTLHISQPALSQIIKNFEESEDVYLFERYKGRLNGLTPAGERFYVNAEHIINEYKNMMEDLREDSVQFKGKVRIGIPPLILGIAFSDVVAQLVANNPDIEFDIVEKGAYDLNRMLILQELDYAVLLHPHKIDKSVVTEHVLQEDELTAFLNINHPLAKKDKIDWNDLNEQLLAIFNPTFMIHHKLMQKFTDENVKLKRYIMSGSWDFLLLSTTNSDFITILPSPVHDFFENSKIIEKPFNHPITWKVILCRPKKERYSHVDQHVFKFIIDFFSKKNS | not soluble
MSLSNTGINCPFDCGLCPRHRSHTSLINIVLTNRCNLSCWYCFFYAREGEPIYEPTLEQIRMMLRNAKKEHPIGANAVQFTGGEPTLRDDLIEIIKIAKEEGYDHIQLNTDGIKLAFDPELVKKLREAGVNTLYLSYDGMTPQTNWKNHWEIPLIFENVRKAGGPGIVLVPTLIRNINDHEAGAIINFGLNHLDIVRGVNFQPISLVGRVPRKERQRFRITIAGAIKKIEEQTNGVIAKEDWYPIPIAGHIARFFEAFTGRKYYMTSHFACGAATYVFLDREEKKVIPIPRFIDVDGFVEFLVEKAEEIEKARFKSLAKLKAIGETIFVKFKQFYDEKNAPKGLDVLGLIKNAFVHGTYDALGKFHMNTLFIGMMHFMDEYNYDVERVERCVIHYAMPDGRIVPFCTFNVIPEIYRDKVQRQFSYSWEEWKKLHPDEGHHHHHH | not soluble
MKILLRNALITNEGKTFPGSVMIDGAFISRIIEGELPADDNLSADEVIECSGLRLFPGCIDDQVHFREPGLTHKATIASESRAAVAGGVTSFMDMPNTNPPTTMWERLLEKRQIGADTAWANYGFFFGGTNDNIDEIKRVDKHLVPGLKLFLGSSTGNMLVDNKETLEKIFGECDLLIATHCEKEEIIRANKEHYKAKYGNDLDIHFHPLIRSEEACYRSSAEAVELAERMNARLHILHLSTEKELSLFRNDIPTAQKRITSEVCVHHLWFSDTDYGRLGNRIKWNPAIKKESDREALRAAVRNGRIDIIATDHAPHLLREKEGSCLQAASGGPLVQHSLLALLELCNQ | not soluble
SAATVPATTRSDQTWDFSCNLDVSFESEEHALIAYTSLAVDKELQPDKVRRVMSVSNNKLSVHFEAIEARLLRASFSAFVDVLTLATRTIQEFGQK | soluble
MGSDKIHHHHHHMKAAIITKYKQITPMVTEVPVPTIAPTDVLVKIVAASVNPIDLKTKDGDLRLLLQYTMPLIMGSDFAGVITAVGDQVPDFKVGDAVYGRAPKDRIGTFAEFIAIDHQAIALKPANLNFEEAAAIPLVGLTSYQALHDIMNIQPGQKVFIPGGSGGIGIIAIQLAKYFGAYVATTTSAKHFDLVQSLGADKIIDYHQQDFTDVLSHYDAVLDTRGGQSLEAAFQIIKPGGQIVSIAGLPNARFGKDYGLPIWKQWLLGLATRKLSRLEQQAQATYSFLFMQPSGQQLVRLRQLIEQGVIKPVVDRIIPLTDINAALEYSHSGHTTGKIIISIQPN | not soluble
MSVMADRLDNMDITVSSPDGNIEGRYRRRGELTLEFRGDAYEQYRQHTLEHQLARLATLLWTGYQREYDAAVSEVVGHPVKDERHLWDANRRRYREAQRATAASGMSAGGRVYIENTGMLSWHVVIRDGTLGELTAAEFASECLSAFDALWRDYRSKMAALRAEHYGLSFASKRRERQPRH | not soluble
MGSDKIHHHHHHMNKTITIDPVTRIEGHARVFIDLDDGGALKAAGLVVNELRGFEKILTGMDADRMPLVTARICGVCPTAHHLAATNALDNAAGVEPPTAAKLLRELMYMGHLIHSHCLSLFVLQGPDLVLGLDADPAIRNVVGVVQAVPDIARKALQCRSIGQKINELVGGRGTHPVTSVAGGIAFVLDADRERQLNAWIQEAHGLVLELAPVVKQLLMKMLDANPAMLEQWVIPAWSVGTVKGDGTIALVNGEIRAIDESGARKAQFPTAGYDTHLSEAAVDFSYMKQVSFVEGETRHDYRVGPLARLNISDRYGTPLADREREEFIRTVGRPCHANALQPWARLIELLYCTERAQEIMASPEIHGETRVPVKFSGGRGVGHVEAPRGTLIHDYEIDENGIVRAANLIVATQQNYALINTMIAQAATSHVINRPDDQALLNAVEFGIRCYDPCLSCATHALGAMPLEIVVNRADRPHLIRRNC | not soluble
MGSDKIHHHHHHMKTITTWQNNIQIVKDATNIVEISKGFSPDKKYIVTTIDEEKYLLRIGDIQEYERRKIEFQILNEMVKRNVQAQRPIEIGILEEEGVCYSIFSYLEGEDAKKLLPTYSPKKQYEIGIEAGKDLAKMHTYEAPNDTLPWYERAMKKHQKYVEAYKTCGIKIKNDDKIIKFIDENEMYLQNRPNQFQHDDFHLENIIVRDGKYVGVVDFNGYDWGDPLHDFVKIALFARDISIPYSIGQIEGYFNGRIPEEFWKLYAVYVGMTVFSSVVWTLRAAPHMLDDTLERLTVVLEDHKDFELLKPIWFQPEKIDIKK | not soluble
MEFDYVICEECGKEFMDSYLMDHFDLPTCDDCRDADDKHKLITKTEAKQEYLLKDCDLEKREPPLKFIVKKNPHHSQWGDMKLYLKLQIVKRSLEVWGSQEALEEAKEVRQ | soluble
MAGDPMYSLFQEGRKMKNTAFLITKNHYPKDYRLKKSPDSDSAMGVAKRILAEVMIFRRVPETISLCGTGCQKCASPHLPKIISAVNKNEPVTFILPAFPGKSPNPEKVLGHLPDHAERLSLNFLGTLCQRIKNFYTPGIKIILCSDGRVFSDVVGMNESDVTAYQLELDRLIKEMSLADLSTFNLDYFYKDLHFVQMREELMKSYGQSLDFLKQKIRNGAKPSASPDEQEANRMYSGITRFLFEDAMHAGQTKSRTAIQKESRFKAYEVIRRSNAWSALIAERFPKAVRLSIHPQTCGSKKLGIRLIGNESWMTPWHGVAVESNKGYVLLRRSEAEALGAKLICSSDGRHSHYQLMAEVSYELAAALEHHHHHH | soluble
MPNQVLFCITKMRYEEKRIYHYLEESGLSIKIMLDSSNLDEVVAHNSDYCLCIVRVMSQHRAFRIAEYMEALGIPTLNSSRAIQICADKAIQALILANRDVIKQPHFSILRNYEDLSNFNGKMVVKPVSSSWGRGISLIENEDALTTWKISHQELDIQNQNLPYLIQEFIDKPNYDVRIVIINTKPVVAFKRVSANNWKTNTHLGATVVPIVIDDSINKIVTEIIKVVGPGIYGLDLMKNRQNEWIFCEINQNPEFAHSWKIHHVDVAEKIAQYVSSKVKVGQKNASTHLEHHHHHH | not soluble
MGSDKIHHHHHHMSRLVRSATLSRYTEVARSVGLDPLRILAEVGLPRTCLDAGDNLVSANAVCRLLEMSAADSDAEDFGLRMGEGRQLSVLGPLGMAVRDSPTLRDALGAMVRYITLHSEALFLGVEEREGALVIRVSLIVEHAGSTRQADEMVVVSLYRMLQELIGPGWRARRICLSHEAPRSLASHLRVFGRAVDFGCDFNGIVCELKDMDAMPRAARPELAQYAHAYLDSLSARATLSMTENVRRMVLSLLPSGNCSVERVASQLGVDRRTVHRKLLQEGASFSSILDEVRATLALQYLRHLERPVSYVAVLLGFSMQSAFSRWFRDHFGCSPSAWRSEGMQPARPVPRQPLLAASPEQRM | not soluble
GPGSMSFKPTISVHATPQELSAAGCRKIVEIIETSGSQQWPLSIALAGGSTPKMTYARLHDEHLNLLREKRALRFFMGDERMVPADSTDSNYNMAREVLLHDIPDDLVFPFDTSAVTPSAEATSADAMRVAEAYGKQLASLLPLKSVGEAGAKVPVFDVVLLGLGSDGHTASIFPGSQAEKETDGKVVVSVGFPSETMKPKVWRVTLSPATIMQARNVIVLATGAEKKWVVDGILADTAHKAPVARFLRGCEGNVSFLLDKEIAENLAKF | soluble
